Measurements reported in US20110131028A1, “CELL POPULATION SYSTEM AND PROCESS” (priority 2006, published 2011).

System: B cells isolated from spleen
Experiment: Survival of unstimulated B cells in culture, lognormal time-to-die fit
Format: cell-based
Settings: increasing IL-4 concentration; FIG. 3D
Protocol: As indicated above, the probability distribution is determined by simulating the decreasing size of a cell population over time in the absence of cell division. For example, when naive T or B lymphocytes are purified from lymphoid tissue and placed in tissue culture without stimulation, they progressively die by apoptosis, apparently from the absence of homeostatic survival signals that are present in vivo. To determine a probability distribution representing probabilities for cell death, small resting B cells from spleen/lymphnode can be placed in culture under different conditions and their viability measured by propidium iodide uptake at step 202. Cell numbers can be counted by reference to beads, as described in Deenick.
At step 204, the two parameters of the lognormal probability distribution, namely the mean μ and standard deviation σ, are determined using a standard fitting procedure (the Matlab fmincon function) that varies μ and σ to obtain the closest match between the corresponding lognormal survival curve (i.e., the simulated ‘survival curve’ representing the decreasing size of the cell population over time, the curve being generated from a lognormal probability distribution representing probabilities for times to die with distribution parameters μ and σ) and the experimental data. […]

B1: IL-4: cytokine that affects B cell viability without stimulating cell division (protein, UniProt P05112 25-153, looked up)
Interleukin-4: HKCDITLQEIIKTLNSLTEQKTLCTELTVTDIFAASKNTTEKETFCRAATVLRQFYSHHEKDTRCLGATAQQFHRHKQLIRFLKRLDRNLWGLAGLNSCPVKEANQSTLENFLERLKTIMREKYSKCSS
Q: For B1, which “mean time to die μ” value is on record?
A: increases
